Data set [1] concerns the target T1, POLR2G (human, UniProt P62487 1-172). The data set is described as follows: ELISA; apparent Kd; 100 mM K+; ELISA: oligos folded in Tris-HCl pH 7.4, 100 mM KCl; ELISA buffer 100 mM KCl, 50 mM KH2PO4 pH 7.4, 3% BSA block, 1 h (room temperature stated for coating and bl). Background: ELISA stands for enzyme-linked immunosorbent assay.
Data set [2] concerns the target T1, POLR2G. The data set is described as follows: ELISA; no detectable binding, up to 200 nM; 100 mM K+; ELISA: oligos folded in Tris-HCl pH 7.4, 100 mM KCl; ELISA buffer 100 mM KCl, 50 mM KH2PO4 pH 7.4, 3% BSA block, 1 h (room temperature stated for coating and bl).

Data on 4 molecules can be found in publication PMC12139101, “DNA G-quadruplex structures act as functional elements in α- and β-globin enhancers”.

B1: HS-40_G4_aWT (structured_DNA)
DNA: TGGGGGTGGAGGTGGGACAAGGGAAAGGGGTGA
Consider B1, for which the Kd in the data set with POLR2G [1] was 52.8 nM.

B2: HS2_G4_bMut (ssDNA)
DNA: CCATAATGCCAAGCTTGAGCACTGATTCCGACACTAGACCT
With B2, in the data set with POLR2G [2], the binding result is “no binding”.

B3: HS-40_G4_aMut (ssDNA)
DNA: TGTGTGTGGATGTGTGACAAGTGAAATGTGTGA
Regarding B3, in the data set with POLR2G [2], the binding result is given as “no binding”.

B4: HS2_G4_WT (bWT) (structured_DNA)
DNA: CCAGAAGCGGGGGTGGGGCACTGACCCCGACAGGGGCCT
In the case of B4, in the data set with POLR2G [1], the Kd was 48.3 nM.
